Assay results taken from publication PMC3338121.

What follows are substances tested against Recombinant soluble empty (peptide free) HLA-DR1 (human) (assay: competitive peptide binding assay).

Point of comparison: “P2,7,10 SPG peptide (HA_(306–319) substituted at P2, P7 and P10), unlabeled”, Kd 605 nM. Against it:
- P2 S peptide (HA_(306–319) substituted at P2), unlabeled — 6.2-fold lower, 97.2 nM
- P2,10 SG peptide (HA_(306–319) substituted at P2 and P10), unlabeled — 1.6-fold lower, 373 nM
- P2,3,7,10 SDPG peptide (HA_(306–319) substituted at P2, P3, P7 and P10), unlabeled — 520-fold higher, 313000 nM
